Source: paper PMC4678855 (Nucleic Acids Research, 2015)

Key:
SAXS = biological target: the molecule itself; assay: SAXS
[1] = biological target: B. subtilis β-clamp, cysteine-modified variant (residues 1–380 including the added Ser379–Cys380 dipeptide) (B. subtilis) (UniProt P05649); assay: SAXS

stoichiometry N [1]: 1
B1: B. subtilis MutL C-terminal domain, inactive cysteine-modified variant (residues 433–627; E485C, C531S, C573S, C604S) (domain or fragment, UniProt P49850 433-627, looked up)
chain: SDRVPIMYPIGQMHGTYILAQNENGLYIIDQHAAQERIKYEYFREKVGEVEPCVQEMIVPLTFHYSTNEALIIEQHKQELESVGVFLESFGSNSYIVRSHPAWFPKGEEAELIEEIIQQVLDSKNIDIKKLREEAAIMMSSKGSIKANRHLRNDEIKALLDDLRSTSDPFTSPHGRPIIIHHSTYEMEKMFKRVM
stoichiometry N (SAXS): 2
